Drawing on article PMC7925086, this text covers stoichiometry N for 1 substance.

This test concerns the target Leishmania RNA virus 1 isolate LRV1-4 major capsid protein (Leishmania RNA virus 1 (isolate LRV1-4, from Leishmania guyanensis strain M5313)). In words: cryo-EM structure; single-particle reconstruction of purified LRV1 virus-like particles, 0.16 mg/ml, in 20 mM sodium phosphate pH 7.4, 300 mM NaCl, 5 mM beta-mercaptoethanol; icosahedral symmetry; 3.65 Å.

In general, stoichiometry N refers to a count of units in the complex or per binding partner. As to “Leishmania RNA virus 1 isolate LRV1-4 major capsid protein (natural protein)”, the stoichiometry N is 120 copies.
